For the experiment, the target named is BSG-S variant E92K (Ok(a-) variant) (human). As to the kind of experiment: SPR.

For “PfRh5 (purified, SPR analyte) (from UniProt Q8IFM5 25-526) (ligand)”, the fold lower affinity than the BSG reference sequence (equilibrium) stood at 2 fold.

The values are drawn from PMC3245779.
